Experimental findings from patent publication US7291458B2, “Leptin-mediated gene-induction” (Vlaams Interuniversitair Instituut Voor Biotechnologie VZW, priority 1998, dated 2007) are described below.

In the assay the test system is PC12-LR8 cells. Nature of the assay: Northern blot analysis of gene induction in non-differentiated PC12-LR8 cells. The assay is classed as cell-based, rat. As to the method:
PC12-LR8 cells were treated with leptin (L), forskolin (F), or a combination of both (F/L) for the indicated length of time. Hybridization with the mouse b-actin probe was used as a control. NI stands for non-induced control cells. Sizes of transcripts are shown on the right. Exposure times to Biomax MS films were 5.5 days for LIP-I and LIP-II, and 1 day for the corresponding b-actin blot, all at −80° C.
FIG. 6A. Induction patterns of Reg I, HIP-I and peripherin after a 12 hours stimulation with forskolin (F), leptin (L), forskolin plus leptin (F/L), hyper-IL-6 (H) or forskolin plus hyper-IL-6 (F/H). Untreated cells were analyzed as a control (NI). Exposure times to BioMax MS films for Reg I, HIP-I and b-actin were 4 days, 5 days and 3 hours, respectively; and in a separate experiment for peripherin and b-actin, 16 hours and 2 days.
FIG. 6B Induction patterns of PAP I, PAP III, MT-II, Fnk, MRF-1, SOCS-3 and STAT-3 after stimulation with leptin (L) or hyper-IL-6 (H), compared to non-treated control cells (NI). In all cases stimulation was for 12 hours, with the exception of PAP III where stimulation was for 24 hours. b-actin hybridization patterns are shown as control. Exposure times to BioMax MS films at −80° C. were 16 hours for PAP I and 1 hour for b-actin; 4 days for PAP III and 1 hour for b-actin; 3 days for MT-II and Fnk, and2 days for b-actin; 3 days for MRF-1, 2.5 days for SOCS-3 and2 days for b-actin; and 16 hours for STAT-3 and 3 hours for b-actin.
FIG. 8A. Northern blot analysis of the immediate early response genes. PC12-LR8 cells were left untreated (NI: non induced), or were treated with forskolin (F), leptin (L) or a combination of both (F/L) for the indicated time points. Exposure times to BioMax MS films for the different transcripts were Fnk: 6 days, MT-II: 5 days, MRF-1: 6 days, SOCS-3: 14 hours, STAT-3: 14 hours, b-actin: 5 hours.
FIG. 8B. Immediate early response gene-set: early kinetics. PC12-LR8 cells were treated with leptin alone (L) or with a combination of leptin and forskolin (F/L) for the indicated length of time. Exposure time to BioMax MS films were: Fnk: 3 days, MT-II: 3 days, MRF-1: 3 days, SOCS-3: 2.5 days, STAT-3: 2.5 days, b-actin: 1 hour.
FIG. 8C. Northern blot analysis of the late target genes. PC12-LR8 cells were left untreated (NI), or were treated with forskolin (F), leptin (L) or a combination of both (F/L) for the indicated length of time. Exposure times to BioMax MS films were: Ann VIII: 6 days, PAP I: 14 hours, Squalene Epoxidase: 5 days, UGT: 5 days, b-actin: 14 hours.
PC12 cells were cultured in RPMI 1640 medium with glutamax-I (GibcoBRL) containing 10% heat-inactivated foetal calf serum (iFCS) and gentamycin (50 μg/ml). The cells were treated with medium alone or supplemented with 100 ng/ml of mouse leptin (R&D Systems), with forskolin (Sigma) at a concentration of 10 μM or with a combination both, unless otherwise indicated.
Total RNA was prepared from PC12 cells using RNeasy™ method (Qiagen). RNA (10 μg) was separated on a 1.5% agarose,6% formaldehyde gel, transferred to a nylon membrane (Zeta-Probe GT Genomic, Bio-Rad), and cross-linked using UV radiation. The filters were hybridized for one hour at 68° C. in ExpressHyb™ solution (Clontech) with [^32P]dCTP-labeled DNA-probes and washed 3 times with 2×SSC, 0.05% SDS at room temperature and twice in 0.1×SSC, 0.1% SDS at 50° C. Autoradiographs were obtained by exposing the blots to BioMax MS film (Kodak) with intensifying screens at −70° C. All Northern blots were normalized by hybridization using a b-actin probe.

B1: leptin: mouse leptin (R&D Systems), ob gene product, used on PC12 cells at 100 ng/ml (protein)
chain: VPIQKVQDDTKTLIKTIVTRINDISHTQSVSAKQRVTGLDFIPGLHPILSLSKMDQTLAVYQQVLTSLPSQNVLQIANDLENLRDLLHLLAFSKSCSLPQTSGLQKPESLDGVLEASLYSTEVVALSRLQGSLQDILQQLDVSPEC
Turning to B1, the “kinetics of synthesis of SOCS-3 mRNA” value (2 hours post stimulation) is “rapid decline”. Further, the “time of optimal mRNA levels post induction” value reads like this: (Annexin VIII, Squalene epoxidase) “over 96 hours”; (PAP I, UGT) 22 h. Further, where the note is “Fnk, MT-II, MRF-1, STAT-3, SOCS-3, leptin treatment”, the “time of induction of immediate early response genes” value is not above 4 h. In addition, the “time of induction of late activated target genes after stimulus” value (PAP I, UGT, Ann VIII, squalene epoxidase, leptin treatment) was not below 6 h. For the same molecule, for the setting “RDA hyper-IL-6 versus leptin”, the “induction of HIP-I and Reg transcripts” value was “not induced”. Besides, the “time of optimal stimulation post induction” value was found to be 30 min (SOCS-3) and 480 min (STAT-3). Further, the “induction of PAP I and PAP III transcripts” value (without forskolin) is given as “requires forskolin co-stimulation”.
